For one experiment, the target named is T1, EYFP-LacI-PSF (UniProt Q8VIJ6 1-699).
T1 sequence: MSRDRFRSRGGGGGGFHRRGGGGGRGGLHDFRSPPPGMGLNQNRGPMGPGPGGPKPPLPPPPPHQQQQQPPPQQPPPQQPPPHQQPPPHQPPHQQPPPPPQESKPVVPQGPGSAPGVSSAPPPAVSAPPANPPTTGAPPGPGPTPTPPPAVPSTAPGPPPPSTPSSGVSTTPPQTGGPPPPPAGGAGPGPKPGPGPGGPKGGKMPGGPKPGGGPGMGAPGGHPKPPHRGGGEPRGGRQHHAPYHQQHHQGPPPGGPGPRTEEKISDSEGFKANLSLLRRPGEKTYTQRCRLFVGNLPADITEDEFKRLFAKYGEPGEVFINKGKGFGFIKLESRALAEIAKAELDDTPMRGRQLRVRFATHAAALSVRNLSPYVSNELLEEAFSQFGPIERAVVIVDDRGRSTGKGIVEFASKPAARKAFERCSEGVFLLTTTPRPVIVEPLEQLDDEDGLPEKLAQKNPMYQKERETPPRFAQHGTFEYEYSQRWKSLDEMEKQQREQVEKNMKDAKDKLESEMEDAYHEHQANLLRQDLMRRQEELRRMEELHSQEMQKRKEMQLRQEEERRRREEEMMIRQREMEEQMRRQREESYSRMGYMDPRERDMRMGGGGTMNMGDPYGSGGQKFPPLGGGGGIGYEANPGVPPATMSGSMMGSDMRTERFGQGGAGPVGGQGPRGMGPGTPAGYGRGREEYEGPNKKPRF
As to the kind of experiment: LacO/LacI tethering in cells, recruitment seen by fluorescence microscopy.

In another experiment the target is T2, EYFP-LacI-PSP1 (UniProt Q8R326 1-523).
T2 sequence: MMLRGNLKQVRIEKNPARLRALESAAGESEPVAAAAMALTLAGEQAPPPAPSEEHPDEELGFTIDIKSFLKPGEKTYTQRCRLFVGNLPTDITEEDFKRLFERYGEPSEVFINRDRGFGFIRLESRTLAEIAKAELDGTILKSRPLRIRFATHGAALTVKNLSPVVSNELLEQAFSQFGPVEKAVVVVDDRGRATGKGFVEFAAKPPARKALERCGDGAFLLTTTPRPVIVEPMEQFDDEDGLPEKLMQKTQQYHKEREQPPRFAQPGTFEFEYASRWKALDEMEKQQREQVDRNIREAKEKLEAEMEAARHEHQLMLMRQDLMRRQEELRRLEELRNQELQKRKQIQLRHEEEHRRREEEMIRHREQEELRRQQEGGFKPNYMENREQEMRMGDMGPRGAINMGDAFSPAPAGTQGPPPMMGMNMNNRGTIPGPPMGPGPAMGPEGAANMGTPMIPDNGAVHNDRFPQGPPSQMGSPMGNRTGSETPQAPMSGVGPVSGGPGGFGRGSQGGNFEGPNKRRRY
The experiment is described as above.

B1: PSP2 (natural protein)
chain: MKIFVGNVDGADTTPEELAALFAPYGTVMSCAVMKQFAFVHMRENAGAVRAIEALHGHELRPGRALVVEMSRPRPLNTWKIFVGNVSAACTSQELRSLFERRGRVIECDVVKDYAFVHMEKEADAKAAIAQLNGKEVKGKRINVELSTKGQKKGPALAIQSGDKTKKPGAGDTAFPGTGGFSATFDYQQAFGNSTGGFDGQARQPTPPFFGRDRSPLRRSPPRASYVAPLTAQPATYRAQPSVSLGAAYRAQPSASLGVGYRTQPMAAQAASYRAQPSVSLGAPYRGQLASPSSQSAAASSLGPYGGVQPSASALSTYGGQAAAASSLNSYGAQGSSLASYGNQPSSYGAQAASSYGVRAAASSYNTQGAASSLGSYGAQAASYGAQSAASSLAYGAQAASYSAQPSASYSAQSAPYAAQQAASYSSQPAAYVAQPATAAAYASQPAAYAAQATTPMAGSYGAQPVVQTQLNSYGAQASIGLSGSYGAQSAAAATGSYGAAAAYGAQPSATLAAPYRTQSSASLAASYAAQQHPQAAASYRGQPGSAYDGTGQPSAAYLSMSQGAVANANSTPPPYERTRLSPPRASYDDPYKKAVAMSKRYGSDRRLAELSDYRRLSESQLSFRRSPTKSSLDYRRLPDAHSDYARYSGSYNDYLRAAQMHSGYQRRM
Take B1: the “percent of cells with recruitment to the tethered protein” value in the experiment with EYFP-LacI-PSF was 58 % of the cells.

B2: mCherry-p54nrb (natural protein)
chain: MQSNKAFNLEKQNHTPRKHHQHHHQQHHQQQQQQQQQQPPPPIPANGQQASSQNEGLTIDLKNFRKPGEKTFTQRSRLFVGNLPPDITEEEMRKLFEKYGKAGEVFIHKDKGFGFIRLETRTLAEIAKVELDNMPLRGKQLRVRFACHSASLTVRNLPQYVSNELLEEAFSVFGQVERAVVIVDDRGRPSGKGIVEFSGKPAARKALDRCSEGSFLLTTFPRPVTVEPMDQLDDEEGLPEKLVIKNQQFHKEREQPPRFAQPGSFEYEYAMRWKALIEMEKQQQDQVDRNIKEAREKLEMEMEAARHEHQVMLMRQDLMRRQEELRRMEELHNQEVQKRKQLELRQEEERRRREEEMRRQQEEMMRRQQEGFKGTFPDAREQEIRMGQMAMGGAMGINNRGAMPPAPVPPGTPAPPGPATMMPDGTLGLTPPTTERFGQAATMEGIGAIGGTPPAFNRPAPGAEFAPNKRRRY
Take B2: the “percent of cells with recruitment to the tethered protein” value with EYFP-LacI-PSP1 is 87 % of the cells.
